The target in test [1] is IgM monoclonal antibody 16D2 to EBNA-1 (mouse). The test is described as follows: ELISA; peptide inhibition ELISA; 16D2 (5 μg/ml) pre-incubated 1 h at 37°C with 0.1 to 100 μg/ml of peptide, then transferred to dsDNA coated plates, 2 h at 37°C. In general terms: In an ELISA, binding on a coated surface is turned into a signal by an enzyme label.
For test [2] the target is unchanged. The test is described as follows: ELISA; peptide inhibition ELISA; 16D2 (5 μg/ml) incubated with 0.1 μg/ml to 1 mg/ml of peptide, then transferred to EBNA-1 coated plates, 1 h at 37°C.
For test [3], the target named is T1, Peptide GL-15 of EBNA-1 (aa 552-566) (Epstein-Barr virus (strain B95-8) …).
T1 construct: EBNA-1 of Epstein Barr virus, aa 552-566; it is surmised from the streptavidin format of the peptide ELISA; source: synthetic peptide
T1 chain: GPLRESIVCYFMVFL
Kind of test: ELISA; anti-peptide ELISA; biotinylated peptide (100 μg/ml), or mole equivalents of biotinylated PFM-15 and biotinylated EBNA-1, on streptavidin coated plates; 3D4 at 5 μg/ml in PBS, 0.1% BSA, 1 h at 37°C. The settings on record: both partners purified.

No end group written: not given here. *: point of attachment. Biotin = O=C1N[C@H]2[C@H](CS[C@H]2CCCCC(=O)*)N1

IgM monoclonal antibody 16D2 to EBNA-1 (mouse), sequence (heavy, as listed by the source): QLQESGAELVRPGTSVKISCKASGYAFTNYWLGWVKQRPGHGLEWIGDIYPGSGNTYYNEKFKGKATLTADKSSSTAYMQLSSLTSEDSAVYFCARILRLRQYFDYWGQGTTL

Biotin-PQPGPLRESIVCYFM [Peptide PFM-15 of EBNA-1 (aa 549-563)] yielded a percent inhibition of binding to dsDNA at 100 μg/ml of peptide in test [1] of 60%. In test [2], this molecule had a percent inhibition of binding to EBNA-1 at 100 μg/ml of peptide of 70%.

B1: IgG monoclonal antibody 3D4 to EBNA-1 (antibody, V domains shown)
VH: LQESGGGLVKPGGSLKLSCAASGFAFSSYDMSWVRQTPEKRLEWVATISSGGSYIYYPDSVKGRFTISRDNARNTLYLQMSSLRSEDTALYYCARPPPFYFDYWGQGTTLTVSS
VL: TQSPLSLPVSLGEQASISCRSSQSLVHSNGNTYLHWYLQKPGQSPKLLIYKVSNRFSGVPDRFSGSGSGTDFTLKISRLEAEDLGFYFCSQTTHVPWTFGGGTK
notes: gamma heavy chain, germline VH7183.14, JH2, 3 mutations; kappa light chain, germline bb1, JK1, 5 mutations; Mouse IgG1 kappa; also called MAb 3D4; source: hybridoma from an EBNA-1 injected mouse; IgG MAbs purified on protein G sepharose columns
Turning to B1, the binding result in test [3] is listed as “binds”.

These data come from paper PMC5004290, “Mapping an epitope in EBNA‐1 that is recognized by monoclonal antibodies to EBNA‐1 that cross‐react with dsDNA” (Immunity, Inflammation and Disease, 2016).
